Consider two molecules from PMC9552611, “MtTRC-1, a Novel Transcription Factor, Regulates Cellulase Production via Directly Modulating the Genes Expression of the Mthac-1 and Mtcbh-1 in Myceliophthora thermophila”.

Data set [1] concerns the target T1, GST-MtTRC-1-DBD (Myceliophthora thermophila ATCC 42464) (UniProt G2Q031).
T1 sequence: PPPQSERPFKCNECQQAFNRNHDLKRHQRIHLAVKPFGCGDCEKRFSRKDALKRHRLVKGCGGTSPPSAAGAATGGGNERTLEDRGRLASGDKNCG
The experiment in a line: EMSA. Particulars: EMSA: 20 mM Tris-base pH 7.5, 20 mM KCl, 10 mM MgCl2, 2 mM DTT, 0.5 ug/uL BSA, 0.2 mg/mL fish sperm DNA, 5% glycerol, 25 C 30 min, 10 ng probe; gel 5% PAGE …. (In general: Mobility shift assays separate free from complexed probe on a gel.)

Another data set addresses T2, GST-MtTRC-1-DBD (Myceliophthora thermophila ATCC 42464, UniProt G2Q031 355-450).
T2 sequence: T1 sequence
The experiment in a line: EMSA; EMSA: 20 mM Tris-base pH 7.5, 20 mM KCl, 10 mM MgCl2, 2 mM DTT, 0.5 ug/uL BSA, 0.2 mg/mL fish sperm DNA, 5% glycerol, 25 C 30 min, 10 ng probe; gel 5% PAGE 0.5x TBE 4 C. Footprinting: 400 ng probe in 40 uL, 25 C 30 min. Particulars: protein: recombinant; tags: GST (N-terminal, pGEX-4T-1); label: Cy5.

With “TTTGCACCATGGAACCTGTGCCCAAAGAACCAAAGAACGCTATTCGCACATATTGCGAATCAGTTGCCAGTGATAGGGGGCGGGGACAGAACCCAAGCCGAGACATACTGTACAACCCAGCGGGTTGTCAATTGCACGCTACATGGTGTAATTTGTATTCCGGACGCACATCATTTCGCAGTTAAGGTTGTGCCCGCTTTTCTGCACTGCCGCTTTGGCGTCTCTTTTTTTTTTTTTTTACGAAGGCTTGCAAGGCGACGTCTTACGCGGTCGGACTTGAATCAGACA (double strand) [Mthac-1-P3]”, the binding result in data set [1] is reported as “binds”.

B1: Mthac-1-P7-FP-M4 (dsDNA)
DNA 1: GATGTGTTTTACAATCGTTCTATTTATTCATTGCTTGACTTGTGGG
DNA 2: CCCACAAGTCAAGCAATGAATAAATAGAACGATTGTAAAACACATC
On to B1, for which the binding result with GST-MtTRC-1-DBD is “no binding”.
